Entries after “also recorded” stand apart in the source; their conditions may differ.
T1: bovine colostrum GalNAc-transferase (Bos taurus, UniProt Q07537)
T1 sequence (Q07537 41-559): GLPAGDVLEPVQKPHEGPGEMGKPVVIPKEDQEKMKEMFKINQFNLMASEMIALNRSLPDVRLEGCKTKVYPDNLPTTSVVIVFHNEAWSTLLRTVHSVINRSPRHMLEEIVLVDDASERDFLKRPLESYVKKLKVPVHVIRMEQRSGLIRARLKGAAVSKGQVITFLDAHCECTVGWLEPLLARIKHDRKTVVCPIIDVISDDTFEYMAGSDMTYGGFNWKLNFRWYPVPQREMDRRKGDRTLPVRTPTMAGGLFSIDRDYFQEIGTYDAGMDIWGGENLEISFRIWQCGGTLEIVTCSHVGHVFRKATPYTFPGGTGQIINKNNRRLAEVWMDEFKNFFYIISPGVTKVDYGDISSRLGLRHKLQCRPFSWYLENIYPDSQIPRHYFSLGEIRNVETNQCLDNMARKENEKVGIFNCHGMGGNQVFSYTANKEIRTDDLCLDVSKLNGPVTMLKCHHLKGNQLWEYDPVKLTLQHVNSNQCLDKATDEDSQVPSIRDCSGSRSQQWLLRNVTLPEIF

B1: GalNAcT-Mel: recombinant baculovirus that expresses a secreted form of GalNAc-transferase with honeybee melittin signal peptide (protein)
chain: DPSPALEPVQKPHEGPGEMGKPVVIPKEDQEKMKEMFKINQFNLMASEMIALNRSLPDVRLEGCKTKVYPDNLPTTSVVIVFHNEAWSTLLRTVHSVINRSPRHMLEEIVLVDDASERDFLKRPLESYVKKLKVPVHVIRMEQRSGLIRARLKGAAVSKGQVITFLDAHCECTVGWLEPLLARIKHDRKTVVCPIIDVISDDTFEYMAGSDMTYGGFNWKLNFRWYPVPQREMDRRKGDRTLPVRTPTMAGGLFSIDRDYFQEIGTYDAGMDIWGGENLEISFRIWQCGGTLEIVTCSHVGHVFRKATPYTFPGGTGQIINKNNRRLAEVWMDEFKNFFYIISPGVTKVDYGDISSRLGLRHKLQCRPFSWYLENIYPDSQIPRHYFSLGEIRNVETNQCLDNMARKENEKVGIFNCHGMGGNQVFSYTANKEIRTDDLCLDVSKLNGPVTMLKCHHLKGNQLWEYDPVKLTLQHVNSNQCLDKATDEDSQVPSIRDCSGSRSQQWLLRNVTLPEIF
B2: GalNAcT 2-1.A: baculovirus isolate of the full length GalNAc-transferase gene (pAC373-GalNAcT) expressed in Sf9 cells (protein)
chain: MRKFAYCKVVLATSLIWVLLDMFLLLYFSECNKCDEKKERGLPAGDVLEPVQKPHEGPGEMGKPVVIPKEDQEKMKEMFKINQFNLMASEMIALNRSLPDVRLEGCKTKVYPDNLPTTSVVIVFHNEAWSTLLRTVHSVINRSPRHMLEEIVLVDDASERDFLKRPLESYVKKLKVPVHVIRMEQRSGLIRARLKGAAVSKGQVITFLDAHCECTVGWLEPLLARIKHDRKTVVCPIIDVISDDTFEYMAGSDMTYGGFNWKLNFRWYPVPQREMDRRKGDRTLPVRTPTMAGGLFSIDRDYFQEIGTYDAGMDIWGGENLEISFRIWQCGGTLEIVTCSHVGHVFRKATPYTFPGGTGQIINKNNRRLAEVWMDEFKNFFYIISPGVTKVDYGDISSRLGLRHKLQCRPFSWYLENIYPDSQIPRHYFSLGEIRNVETNQCLDNMARKENEKVGIFNCHGMGGNQVFSYTANKEIRTDDLCLDVSKLNGPVTMLKCHHLKGNQLWEYDPVKLTLQHVNSNQCLDKATDEDSQVPSIRDCSGSRSQQWLLRNVTLPEIF
B3: GalNAcT 2-1.B: baculovirus isolate of the full length GalNAc-transferase gene (pAC373-GalNAcT) expressed in Sf9 cells (protein)
chain: B2 chain
B4: Bovine rhodanese: cytoplasmic protein containing three strong predicted glycosylation sites (protein)
chain: VHQVLYRALVSTKWLAESVRAGKVGPGLRVLDASWYSPGTREARKEYLERHVPGASFFDIEECRDKASPYEVMLPSEAGFADYVGSLGISNDTHVVVYDGDDLGSFYAPRVWWMFRVFGHRTVSVLNGGFRNWLKEGHPVTSEPSRPEPAIFKATLNRSLLKTYEQVLENLESKRFQLVDSRAQGRYLGTQPEPDAVGLDSGHIRGSVNMPFMNFLTEDGFEKSPEELRAMFEAKKVDLTKPLIATCRKGVTACHIALAAYLCGKPDVAIYDGSWFEWFHRAPPETWVSQGKGGKA
B5: Myelin basic protein: efficient acceptor for GalNAc-transferase, included as a positive control (protein, UniProt P02686 1-304, looked up)
Myelin basic protein: MGNHAGKRELNAEKASTNSETNRGESEKKRNLGELSRTTSEDNEVFGEADANQNNGTSSQDTAVTDSKRTADPKNAWQDAHPADPGSRPHLIRLFSRDAPGREDNTFKDRPSESDELQTIQEDSAATSESLDVMASQKRPSQRHGSKYLATASTMDHARHGFLPRHRDTGILDSIGRFFGGDRGAPKRGSGKDSHHPARTAHYGSLPQKSHGRTQDENPVVHFFKNIVTPRTPPPSQGKGRGLSLSRFSWGAEGQRPGFGYGGRASDYKSAHKGFKGVDAQGTLSKIFKLGGRDSRSGSPMARR
B6: Subtilisin: bacterial protein produced by a microbial system incapable of O-linked oligosaccharide biosynthesis (protein, UniProt P00782 108-382, looked up)
Subtilisin BPN': AQSVPYGVSQIKAPALHSQGYTGSNVKVAVIDSGIDSSHPDLKVAGGASMVPSETNPFQDNNSHGTHVAGTVAALNNSIGVLGVAPSASLYAVKVLGADGSGQYSWIINGIEWAIANNMDVINMSLGGPSGSAALKAAVDKAVASGVVVVAAAGNEGTSGSSSTVGYPGKYPSVIAVGAVDSSNQRASFSSVGPELDVMAPGVSIQSTLPGNKYGAYNGTSMASPHVAGAAALILSKHPNWTNTQVRSSLENTTTKLGDSFYYGKGLINVQAAAQ

Columns and labels:
[1] = tested on: GalNAc-transferase activity in Sf9 cells; experiment: Expression of baculovirus isolates of soluble GalNAc-transferase in Sf9 cells, total activity; type: cell-based, Spodoptera frugiperda; conditions: for Total activity, cell lysate / Total activity, culture medium: 65 hours post infection; for Total activity, cell lysate: 1X10^6 cells; for Total activity, culture medium: culture medium volume 5 ml
Experimental: GalNAcTs was routinely expressed in one liter batches. Approximately 1×10^9 cells in one liter Grace's serum-free insect medium (Insect Express) were infected with 5 pfu/cell of GalNAcTs-Mel. The infected cells were cultured in shaker flasks for 65 hours before harvest.
^a 1 unit equals one mole Nacetylgalactosamine transferred to apomuci
per minute, under assay conditions.
Cells (1X10^6) were infected with recombinant virus containing GalNAcTs-Mel (5 pfu/cell). The cells were harvestd 65 hours post infrction, lysed in a detergent containing buffer and the GalNac-transferase activity was determined in the cell lysates and the corresponding culture media; lysate and culture medium from uninfected cells were assayed as control. The numbers have been adjusted for differences in protein content in the cell lysates; the volume of the culture media was 5 ml.

[2] = tested on: GalNAc-transferase activity in Sf9 cells; experiment: Expression of baculovirus isolates of the GalNAc-transferase in Sf9 cells, GalNAcT activity; type: cell-based, Spodoptera frugiperda; conditions: for Specific activity: Sf9 cell lysates, 48 hours post infection; for Relative rate: relative to uninfected cells
Experimental: (§1) The standard assay for UDP-GalNAc:polypeptide, N-acetylgalactosaminyltransferase activity during purification contained the following components in a final volume of 80 μl: 50 mM Imidazole pH 7.2, 10 mM MnCl2, 0.5% Triton X-100, 15 μM UDP-GalNAc, UDP[1-^3 H-] GalNAc (27,000 cpm/assay), 0.15 mg/ml apomucin and varying amounts of enzyme (see individual experiments). The reaction mixture is incubated at 37° C. for 5-10 minutes (see individual experiments) and the reaction product is TCA precipitated and radioactivity measured as described. Assays for activity in lysates from Spodoptera frugiperda cell line 9 (hereinafter referred to as Sf9 cells) are carried out as described by Thomsen et al., (1990).
The putative GalNAcT coding region, pCR1000-91B, is digested with SstII and HindIII (both enzymes cut only in pCR1000 sequences that flank the insert; FIG. 2C) and these sites are blunted using T4 DNA polymerase so that it can be cloned into a baculovirus expression vector. BamHI linkers are then ligated onto the blunted ends and the resulting sample is ligated into the BamHI site of the baculovirus expression vector pAC373 (Summers and Smith, 1986). The resulting isolates are screened for proper orientation of the GalNAcT open reading frame with respect to the baculovirus polyhedron promoter, to yield pAC373-GalNAcT. Cotransfection of Sf9 cells with pAC373-GaINAcT and linearized baculovirus DNA from PharMingen's baculoGold transfection kit is performed using calcium phosphate precipitation (Summers & Smith, 1986). The baculovirus DNA provided in the PharMingen transfection kit contains a lethal mutation that can be corrected by homologous recombination with sequences contained in the pAC373 vector. Therefore, following transfection, only recombinant viruses will grow on Sf9 cells. Transfections are done in duplicate and the resulting virus samples are referred to as GalNAcT 2-1A and GaINAcT 2-1B. Cells are harvested 48 hours post infection and lysed in a detergent containing buffer. Following sedimentation of undissolved material, the cleared lysates are assayed for GalNAcT activity. Lysates from uninfected cells or from cells infected with either a baculovirus containing an unrelated gene, CMV-POL (human cytomegalovirus DNA polymerase gene), or two separate baculovirus isolates of the GaINAcT gene, GalNAcT 2-1A and GaINAcT 2-1B, are assayed.

[3] = biological target: T1, bovine colostrum GalNAc-transferase; experiment: Transfer of N-acetylgalactosamine to protein acceptors by bovine colostrum GalNAc-transferase; type: biochemical; conditions: for Product formed, native acceptor / Product formed, reduced and carboxymethylated acceptor: acceptor 65 μM, enzyme approximately 65 mU/ml, 60 minutes; for Product formed, reduced and carboxymethylated acceptor: myelin basic protein was not reduced and carboxymethylated; for acceptor activity in words: native or reduced and carboxymethylated
Experimental: as §1
The above conclusions and the predictions of the specificity algorithm are validated experimentally by studying the ability of bovine colostrum GalNAc-transferase to transfer N-acetylgalactosamine to a variety of acceptors, both native proteins and synthetic acceptor peptides. The transfer of N-acetylgalactosamine to protein acceptors is assayed as described by Elhammer and Kornfeld, 1986, with minor modifications. The concentration of UDP-GalNAc is saturating in all assays; a Km of 8 μM is reported for bovine colostrum GalNAc-transferase (Elhammer and Kornfeld, 1986).
The transfer of N-acetylgalactosamine to protein acceptors was assayed
under standard conditions (see Material and Methods). The acceptor
concentration was 65 μM, the enzyme concentration approximately
65 mU/ml and assay time was 60 minutes. The transfer to both native and
reduced-carboxymethylated acceptors was assayed.

[4] = biological target: T1, bovine colostrum GalNAc-transferase; conditions: Cruz and Moscarello, 1983; cited from earlier work

Row | Molecule | Total activity, cell lysate [1] | Total activity, culture medium [1] | Specific activity [2] | Relative rate [2] | Product formed, native acceptor [3] | Product formed, reduced and carboxymethylated acceptor [3] | also measured
1 | B1 | 32.15 U | 57.80 U | – | – | – | – | portion of total enzymatic activity retained inside the cells [1]: 36%; activity in medium relative to cells expressing the full length molecule ([1]; culture medium): more than 35 times; increase in GalNAc-transferase activity in the culture medium ([1]; vs uninfected cells): 130 fold
2 | B2 | 16.22 U | 1.61 U | 13.9 Units/mg protein | 87 | – | – | –
3 | B3 | – | – | 11.9 Units/mg protein | 74 | – | – | –
4 | B4 | – | – | – | – | < 0.1 nmol/min/mg | 3.3 nmol/min/mg | acceptor activity in words ([3]; listed as bovine rhodanese): neither of them reacts unless reduced and carboxymethylated; acceptor activity in words ([3]; listed as rhodanese): neither subtilisin nor rhodanese showed any acceptor activity without prior reduction and carboxymethylation
5 | B5 | – | – | – | – | 22.2 nmol/min/mg | 21.3 nmol/min/mg | N-acetylgalactosamines per molecule [4]: 1.2 to 1.5 N-acetylgalactosamines per molecule
6 | B6 | – | – | – | – | < 0.1 nmol/min/mg | 0.6 nmol/min/mg | transfer rate slower than to myelin basic protein ([3]; denatured subtilisin vs myelin basic protein): 35 times; acceptor activity in words [3]: neither of them reacts unless reduced and carboxymethylated; also recorded: neither subtilisin nor rhodanese showed any acceptor activity without prior reduction and carboxymethylation

From patent publication US6096512A, “Cloned DNA encoding a UDP-GalNAc: Polypeptide, N-acetylgalactosaminyltransferase” (Pharmacia & Upjohn Company, priority 1997, dated 2000)
